From US20190185569A1 (published 2019)
One block for each molecule: values may come before it.

Experiments:
[1] = molecular target: T cell surface antigens CTLA4 and PD-1; experiment: flow cytometry, PHA-stimulated CD4+ T cells; Ab 100 nM
[2] = molecular target: T1, PD-1 antigen obtained by digesting PD-1-mFc with TEV protease (UniProt Q15116 25-170, limits assumed, biotin-labelled (sites not given)); experiment: BLI (Fortebio), biotin-PD-1 on SA sensor, antibody in solution
T1 construct: extracellular domain; also called antigen PD-1
Experimental: The antibodies were diluted with PBST from 200 nM down three fold each time. The dissociation was also in PBST.

PD-1-mFc [3] = molecular target: T2, PD-1-mFc (mouse, UniProt Q15116 25-170 (human entry), limits assumed); experiment: indirect ELISA, coat PD-1-mFc 0.5 ug/mL
T2 construct: extracellular domain; a TEV site is implied; not shown: mouse IgG Fc fragment (mFc)
Experimental: TMB (Neogen, 308177) was added to react for 5 mins. The absorbance was read at the wavelength of 450 nm in a microplate reader.

PD-1-mFc [4] = molecular target: T2, PD-1-mFc; experiment: competition ELISA, coat PD-1-mFc 0.2 ug/mL, PDL1-hFc 2 ug/ml
[5] = molecular target: T3, CTLA4 antigen obtained by digesting CTLA4-mFc with TEV protease (human, UniProt P16410 36-161); experiment: BLI (Fortebio), antibody amine-coupled on AR2G sensor, CTLA4 in solution
T3 construct: extracellular domain; Biotin-labelled when immobilised on SA sensors; also called CTLA4 protein; antigen CTLA4
Experimental: 1.2 Antibody 4G10 was immobilized to AR2GBiosensors by amine coupling method, and then blocked with ethanolamine and equilibrating in PBST, and then bound to CTLA4. CTLA4 was double gradient diluted with PB ST to the concentrations of 268.1, 134.1, 67, 33.5, 16.8, 8.38, 4.19, and 0 nM. The dissociation was also in PBST.

T1 sequence (Q15116 25-170 limits assumed): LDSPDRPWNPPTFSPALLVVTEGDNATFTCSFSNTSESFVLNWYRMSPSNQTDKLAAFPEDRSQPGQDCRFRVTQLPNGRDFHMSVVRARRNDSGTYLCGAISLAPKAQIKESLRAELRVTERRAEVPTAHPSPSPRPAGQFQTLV
T3 sequence (P16410 36-161): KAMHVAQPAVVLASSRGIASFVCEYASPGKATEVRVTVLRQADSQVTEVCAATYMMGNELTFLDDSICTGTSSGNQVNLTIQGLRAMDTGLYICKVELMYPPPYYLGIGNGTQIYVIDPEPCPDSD
T2 sequence (Q15116 25-170 limits assumed): as the sequence (Q15116 25-170 limits assumed) above

MFI (fluorescence intensity) [1]: 10.2
Molecule: hIgG (antibody)

Kd [2]: 0.0181 nM
koff [2]: 6.12e-06 s⁻¹
kon [2]: 338000 M⁻¹ s⁻¹
EC50 (PD-1-mFc [3]): 0.175 nM
EC50 (PD-1-mFc [4]): 0.853 nM
B1: monoclonal antibody 14C12 (antibody, V domains shown)
VH: EVKLVESGGGLVKPGGSLKLSCAASGFAFSSYDMSWVRQTPEKRLEWVATISGGGRYTYYPDSVKGRFTISRDNARNTLYLQMSSLRSEDTALYYCANRYGEAWFAYWGQGTLVTVSA
VL: DIKMTQSPSSMYASLGERVTFTCKASQDINTYLSWFQQKPGKSPKTLIYRANRLVDGVPSRFSGSGSGQDYSLTISSLEYEDMGIYYCLQYDEFPLTFGAGTKLEL
notes: Mouse hybridoma antibody; also called antibody secreted by hybridoma LT003 (PD-1-14C12)

Kd [5]: 0.301 nM
koff [5]: 0.000114 s⁻¹
kon [5]: 378000 M⁻¹ s⁻¹
B2: monoclonal antibody 4G10 (antibody, V domains shown)
VH: QVKLQESGPELVKPGASMKISCKASGYSFTGYTMNWVKQSHGKNLEWIGLINPYNNITNYNQKFMGKATFTVDKSSSTAYMELLRLTSEDSGVYFCARLDYRSYWGQGTLVTVSA
VL: QAVVTQESALTTSPGETVTLTCRSSTGAVTTSNFANWVQEKPDHLFTSLIGGTNNRAPGVPARFSGSLIGDKAALTITGAQTEDEAIYFCALWYSNHWVFGGGTKLTVLG
notes: Mouse hybridoma antibody purified on protein A; also called antibody secreted by hybridoma LT002 (CTLA4-4G10)
